One block for each binder: values may come before it.
What was measured:
[1] = target: T1, human PCSK9 (proprotein convertase subtilisin kexin type 9) (human, UniProt Q8NBP7 31-692); test: cell-based or functional assay
[2] = target: T1, human PCSK9 (proprotein convertase …); test: SPR (ProteOn), 25 C
[3] = target: T1, human PCSK9 (proprotein convertase …); test: BLI (Octet Red), 37 C
Experimental: Tips were then immersed into a buffer-only well for observation of Adnectin dissociation. Experiments were performed in a temperature controlled environment at either 25 or 37° C., and the oscillation speed was set at 1500 rpm.
Binding interaction analysis was performed using proprietary software from Fortebio (Fortebio Data Analysis Software version 6.3.0.36). Global fits were performed for all samples, using a 1:1 binding model. The nature of these global fits constrained all values of concentration to a single pair of association and dissociation rates that were themselves constrained to each other. Affinities (KD), association and dissociation rates were averaged over the various loading levels used in the analysis.

[4] = target: T1, human PCSK9 (proprotein convertase …); test: cell-based or functional assay; remark: listed apart in the source
[5] = target: T1, human PCSK9 (proprotein convertase …); test: PCSK9:EGFA FRET, competitor EGFA peptide
Cynomolgus PCSK9 = target: T2, Cynomolgus PCSK9 (cynomolgus monkey, UniProt A0A7N9D9N8 150-747); test: SPR (ProteOn), PCSK9 immobilized directly, 25 C
T2 construct: also called cyno PCSK9; cPCSK9
Experimental: The binding characteristics were characterized by Surface Plasmon Resonance (SPR). […] This allowed kinetic determination in the absence of regeneration. […] Evaluation of the kinetic parameters was performed using the Langmuir interaction model and constant parameter fitting with the ProteOn Manager software.

[6] = target: T1, human PCSK9 (proprotein convertase …); test: PCSK9:EGFA FRET at 5 nM PCSK9, competitor EGFA peptide
[7] = target: T1, human PCSK9 (proprotein convertase …); test: PCSK9:ATI-972 FRET at 5 nM human PCSK9, competitor biotinylated ATI-972
human serum albumin [8] = target: T3, human serum albumin (human, UniProt P02768 25-609); test: SPR (Biacore), albumin captured on chip, SABA in flow
T3 construct: also called HSA
Experimental: (§1) The kinetics of selected SABA clones purified from HTPP and/or midscaled material described in Examples 5A and 5B were determined by capturing the respective serum albumin (HSA/RhSA/MuSA) on the surface of a Biasensor CMS chip and flowing a concentration series of SABAs over both the reference flow cell and the captured albumins. In addition, binding to albumin was carried out under various pH conditions ranging from pH 5.5 to pH 7.4.

rhesus serum albumin = target: T4, rhesus serum albumin (rhesus, UniProt Q28522 17-600); test: as above
T4 construct: also called RhSA
Experimental: as §1

human serum albumin [9] = target: T3, human serum albumin; test: SPR (Biacore), albumin captured on chip, SABA in flow; n = 6
Experimental: as §1

[10] = target: T5, human PCSK9 (proprotein convertase subtilisin kexin type 9) (human, UniProt Q8NBP7 31-692); test: KinExA, solution phase
T5 construct: Directly immobilized (SPR ProteOn), biotinylated (BLI), or in solution, depending on the assay; also called hPCSK9
Experimental: Due to technical limitations, the lowest concentration of Adnectins that could be tested was 1 nM.

[11] = target: T5, human PCSK9 (proprotein convertase …); test: ITC, 37 C, average of 3 experiments
Experimental: Solution phase binding was measured in 25 mM HEPES, pH 7.41, 150 mM NaCl at 37° C.

[12] = target: T5, human PCSK9 (proprotein convertase …); test: BLI, biotinylated hPCSK9 on sensor tips

B2: ATI001114 (designed binder)
chain: MGVSDVPRDLEVVAATPTSLLISWVPPSDDYGYYRITYGETGGNSPVQEFTVPIGKGTATISGLKPGVDYTITVYAVEFPWPHAGYYHRPISINYRTGSGCHHHHHH
modifications: 40 kDa two-branched PEG on the cysteine of the C-terminal tail (GSGC)
notes: also called ATI1114
EC50 [7]: 0.8 nM

B5: ATI001174 (designed binder)
chain: MGVSDVPRDLEVVAATPTSLLISWVPPSDDYGYYRITYGETGGNSPVQEFTVPIGKGTATISGLKPGVDYTITVYAVEFPWPHAGYYHRPISINYRTEIEKPCQ
modifications: PEGylated on the cysteine of the C-terminal EIEKPCQ tail
notes: PEGylated, non-His-tagged cysteine mutant of 2013E01; also called ATI-1174; ATI1174
Kd [10]: 0.223 nM
Ka [11]: 7.5e+08 M⁻¹
Kd [11]: 1.3 nM
Stoichiometry (N) [11]: 0.857
ΔH [11]: -29.9 kcal/mol
ΔS [11]: -55.8 cal/mol °C
Kd [12]: 7.4 nM
koff [12]: 0.000901 s⁻¹
kon [12]: 126000 M⁻¹ s⁻¹

The remaining lines, values ahead:

DiI-LDL uptake in HepG2 cells, EC50 [1]: 160 nM
EC50 (nM), PCSK9-induced LDLR depletion from HepG2 cell surface [1]: 12.4 nM
PCSK9-induced LDLR depletion in HepG2 cells, EC50 [1]: 9 nM
percentage of PCSK9 inhibition at 75 nM [1]: 152%
Kd [2]: 0.29 nM
Kd [3]: 1.51 nM
LDLR Depletion (% inhibition at 75 nM) [4]: 166%
LDLR Depletion EC50 [4]: 10 nM
EC50 [5]: 1.6 nM
Kd (Cynomolgus PCSK9): 8 nM
EC50 [6]: 3.7 nM
EC50 [7]: 2.8 nM
B1: 2013E01 (designed binder)
chain: MGVSDVPRDLEVVAATPTSLLISWVPPSDDYGYYRITYGETGGNSPVQEFTVPIGKGTATISGLKPGVDYTITVYAVEFPWPHAGYYHRPISINYRTEIDKPSQHHHHHH
notes: unmodified (not PEGylated) Adnectin; also called ATI001081

koff (human serum albumin [8]): 0.000171 s⁻¹
Kd (rhesus serum albumin): 63.6 nM
koff (rhesus serum albumin): 0.000442 s⁻¹
Kd (human serum albumin [9]): 33.8 nM
B3: SABA2.1 (designed binder)
chain: MGVSDVPRDLEVVAATPTSLLISWPKYDKTGHYYRITYGETGGNSPVQEFTVPTRQTTATISGLKPGVDYTITVYAVSKDDYYPHEHRPISINYRTEIDKPSQHHHHHH

PCSK9-induced LDLR depletion in HepG2 cells, EC50 [1]: 8 nM
inhibition of PCSK9-AF647 intracellular fluorescence in HepG2 cells, EC50 [1]: 10 nM
EC50 [6]: 1.9 nM
B4: ATI001174 (designed binder)
chain: B5 chain
modifications: PEG on the cysteine of the C-terminal tail (EIEKPCQ)
notes: also called ATI-1174; ATI1174
